Experimental data from publication PMC6327479.

System: T1, HicB-6His (Sinorhizobium meliloti), ORF:5e3b9e2c
T1 sequence: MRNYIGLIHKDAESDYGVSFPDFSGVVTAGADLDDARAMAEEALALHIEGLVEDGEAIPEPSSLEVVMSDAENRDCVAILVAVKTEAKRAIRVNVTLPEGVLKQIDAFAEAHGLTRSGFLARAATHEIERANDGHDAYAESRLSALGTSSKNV
Assay: EMSA
Conditions: EMSA: 10 mM Tris-HCl pH 7.5, 50 mM NaCl, 1 mM DTT, 300 ug/ml BSA, 20 ul, 30 min at 25 C; 5% native PAGE in TAE pH 7.5

GATCCGACGGTTCGAGACCATCCGAGAAAGCCGCCTTAGATTGGCTTGACAAATTCATTGGACGAATACACATGCGTGTGTATTGTCGTATCAGATGAAGAGCGGCGACATTATTGCAGCATTGCAGAAGGACGGATGGTACGAGGTTGCGACCAAGGGCAGCCACGTTCAATTCAAACATCCGAAAAAGCACGGCCGGGTTACCGTTCCTCACCCGAAGA (double strand) [hicAB promoter fragment]
binding: binds
